Patent US6383734

T1: Raf-1 (331-345) peptide
T1 chain: RPRGQRDSSFFWEIE


Columns and labels:
[1] = target: T1, Raf-1 (331-345) peptide
[2] = target: Raf-CR3 (wild type), recombinant Raf-1 catalytic fragment, calmodulin binding protein fusion, P04049
[3] = target: Raf-CR3[A338A339], P04049
[4] = target: Raf-CR3[D338E339], P04049

Protein	phosphorylation of the Raf-1 peptide [1]	phosphorylation of Raf-CR3 [2]	phosphate incorporation into Raf-CR3 [3]	phosphate incorporation into Raf-CR3 [4]	phosphate incorporation into Raf-CR3 [2]
recombinant His-tagged mouse PAK3 from Sf9 cells (protein) MSDSLDNEEKPPAPPLRMNSNNRDSSALNHSSKPLPMAPEEKNKKARLRSIFPGGGDKTNKKKEKERPEISLPSDFEHTIHVGFDAVTGEFTGIPEQWARLLQTSNITKLEQKKNPQAVLDVLKFYDSKETVNNQKYMSFTSGDKSAHGYIAAHQSNTKTASEPPLAPPVSEEEDEEEEEEEDDNEPPPVIAPRPEHTKSIYTRSVVESIASPAAPNKEDIPPSAENANSTTLYRNTDRQRKKSKMTDEEILEKLRSIVSVGDPKKKYTRFEKIGQGASGTVYTALDIATGQEVAIKQMNLQQQPKKELIINEILVMRENKNPNIVNYLDSYLVGDELWVVMEYLAGGSLTDVVTETCMDEGQIAAVCRECLQALDFLHSNQVIHRDIKSDNILLGMDGSVKLTDFGFCAQITPEQSKRSTMVGTPYWMAPEVVTRKAYGPKVDIWSLGIMAIEMVEGEPPYLNENPLRALYLIATNGTPELQNPERLSAVFRDFLNRCLEMDVDRRGSAKELLQHPFLKLAKPLSSLTPLIIAAKEAIKNSSR	Recombinant His-tagged mouse PAK3 from Sf9 cells phosphorylated the Raf-1 peptide	strongly phosphorylated wild type Raf-CR3	–	–	–
full-length PAK3 from rat spleen lysate (protein) SDNGELEDKPPAPPVRMSSTIFSTGGKDPLSANHSLKPLPSVPEEKKPRNKIISIFSSTEKGSKKKEKERPEISPPSDFEHTIHVGFDAVTGEFTGMPEQWARLLQTSNITKLEQKKNPQAVLDVLKFYDSNTVKQKYLSFTPPEKDGFPSGTPALNTKGSETSAVVTEEDDDDEDAAPPVIAPRPDHTKSIYTRSVIDPIPAPVGDSNVDSGAKSSDKQKKKAKMTDEEIMEKLRTIVSIGDPKKKYTRYEKIGQGASGTVFTATDVALGQEVAIKQINLQKQPKKELIINEILVMKELKNPNIVNFLDSYLVGDELFVVMEYLAGGSLTDVVTETCMDEAQIAAVCRECLQALEFLHANQVIHRDIKSDNVLLGMEGSVKLTDFGFCAQITPEQSKRSTMVGTPYWMAPEVVTRKAYGPKVDIWSLGIMAIEMVEGEPPYLNENPLRALYLIATNGTPELQNPEKLSPIFRDFLNRCLEMDVEKRGSAKELLQHPFLKLAKPLSSLTPLILAAKEAMKSNR	–	–	reduced ability of immunoprecipitated PAK3 to phosphorylate the Raf-CR3[A338,A339] or Raf-CR3[D338,E339] mutant proteins	reduced ability of immunoprecipitated PAK3 to phosphorylate the Raf-CR3[A338,A339] or Raf-CR3[D338,E339] mutant proteins	4-fold more phosphate into wild type Raf-CR3 than into the non-phosphorylatable Raf-CR3[D338E339] or Raf-CR3[A338A339] site mutants
